This is an account of results in US20220251170A1 (KOREA INSTITUTE OF SCIENCE AND TECHNOLOGY, published 2022).

The target of the assay is T1, human CD47 on the surface of HT29 and Raji tumor cells (human, UniProt Q08722 19-323).
T1 construct: whole, on cells; also called cell surface CD47
Description: cell binding assay, flow cytometry, anti-Myc detection (FIG. 15A). The procedure: Cell binding analysis according to one embodiment of the present invention was carried out by culturing HT29 human colon adenocarcinoma (ATCC), Raji human B cell lymphoma (ATCC) and CT26.CL25 mouse colon cancer cells (ATCC) in RPMI-1640 culture medium supplemented with 10% FBS and 1% antibiotics and the cultures were maintained at 37° C. and 5% CO₂. HT29 and Raji cells were then cultured with the addition of an anti-human CD47 antibody (B6H12.2, Abcam, ab3283) and CT26.CL25 cells were incubated with anti-mouse CD47 antibody (Santa Cruz, sc-12731). For cell binding assays, HT29, Raji and CT26.CL25 cells (1×10⁶) were incubated at 4° C. for 30 minutes with the addition of PBS, exosomes or mSIRPα, respectively. The cells were then incubated with anti-Myc antibodies (1:400, Abcam, ab9106) and detected by the addition of Alexa fluor 488-conjugated secondary antibody (1:800, Jackson ImmunoResearch). The cells were then measured using an Accuri™ C6 flow cytometer (BD Biosciences) and analyzed using FlowJo_V10 software (FlowJo). The binding specificity of SIRPα-exosomes to CD47 was analyzed by block experiments through pre-incubation of cells with anti-human CD47 antibody (1:100, Abcam, ab3283).
Background: In flow cytometry, cells or beads pass a laser one at a time.

T1 sequence (Q08722 19-323): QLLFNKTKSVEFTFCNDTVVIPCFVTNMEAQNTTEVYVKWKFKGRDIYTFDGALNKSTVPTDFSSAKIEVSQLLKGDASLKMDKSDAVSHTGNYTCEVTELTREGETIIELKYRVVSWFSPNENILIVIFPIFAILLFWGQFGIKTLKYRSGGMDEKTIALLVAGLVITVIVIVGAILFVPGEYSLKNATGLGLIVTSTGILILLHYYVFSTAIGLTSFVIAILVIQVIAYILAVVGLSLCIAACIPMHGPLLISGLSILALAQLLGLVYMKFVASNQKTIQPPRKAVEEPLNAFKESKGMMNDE

B1: purified recombinant SIRPα-Myc monomer protein (mSIRPα) (receptor)
chain: EEELQIIQPDKSVLVAAGETATLRCTITSLFPVGPIQWFRGAGPGRVLIYNQRQGPFPRVTTVSDTTKRNNMDFSIRIGNITPADAGTYYCIKFRKGSPDDVEFKSGAGTELSVRAKP
notes: Expressed in bacteria from pET-28a (Nde I-SIRPα variant-Myc-Hind III), purified on Ni-NTA; also called monomeric SIRPα protein; recombinant SIRPα protein; not shown: N-terminal histidine tag from pET-28a; C-terminal Myc tag
For B1, the binding result was “binds”.
